This is an account of results in patent US20240002500A1 (GUANGDONG FAPON BIOPHARMA, published 2024).

Assay [1] addresses T1, hTIGIT-hFc (human, UniProt Q495A1 22-141).
T1 construct: also called antigen protein hTIGIT-hFc; human TIGIT recombinant protein carrying a human Fc tag; not shown: human Fc tag
T1 sequence (looked up): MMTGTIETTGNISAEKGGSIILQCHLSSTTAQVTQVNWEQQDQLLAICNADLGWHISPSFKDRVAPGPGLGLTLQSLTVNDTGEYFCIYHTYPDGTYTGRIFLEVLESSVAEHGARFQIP
The experiment in a line: FACS blocking: hTIGIT-hFc bound on U2-OS cells (PVR and CD112), then antibody, APC anti-human IgG Fc; first row of the table, row head not printed (fits the midpoint of the Tigit-5 curve; like table in Fig. 6A); unit from the x axis Log[µg/mL]. The procedure: (§1) U2-OS cells to be detected (human osteosarcoma cells, naturally and highly expressing PVR and CD112 by means of detection) were counted; centrifugated at 300 g for 5 min; resuspended with an FCM buffer; and cell density was adjusted to 4E+06 cell/mL for later use. […] According to an experimental design, in each well, 50 μL of the antigen protein and 50 μL of the cell (the volume of each cell added into a 96-well V-shaped plate being 2E+05 cell/well) were respectively added in the 96-well V-shaped plate; and incubation was performed in dark on ice for 30 min. Centrifugation (300 g/5 min) was performed; supernatant was discarded; 200 μL of the FCM buffer was added for washing once; centrifugation (300 g/5 min) was performed; and the supernatant was discarded. The antibody was added to the 96-well V-shaped plate (in 100 μL/well); and incubation was performed in dark on ice for 30 min. Centrifugation (300 g/5 min) was performed; supernatant was discarded; 200 μL of the FCM buffer was added for washing once; centrifugation (300 g/5 min) was performed; and the supernatant was discarded. Secondary antibodies (APC anti-human IgG Fc, 1:500 dilution) were added to the 96-well V-shaped plate (in 100 μL/well); and incubation was performed in dark on ice for 30 min. […]

Assay [2] addresses T2, full-length human TIGIT on cells (human, UniProt Q495A1 22-244).
T2 construct: whole, on cells; The same protein is used for CHO-hTIGIT, PBMC and NK92-hTIGIT; the cells are named under assay; also called CHO-hTIGIT; hTIGIT
T2 sequence (looked up): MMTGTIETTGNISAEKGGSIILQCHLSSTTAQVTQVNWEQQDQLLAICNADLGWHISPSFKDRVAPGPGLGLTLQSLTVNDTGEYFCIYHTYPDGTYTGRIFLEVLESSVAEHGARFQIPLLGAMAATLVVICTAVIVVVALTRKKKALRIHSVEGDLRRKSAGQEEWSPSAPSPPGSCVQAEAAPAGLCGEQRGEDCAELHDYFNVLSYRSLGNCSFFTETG
The experiment in a line: FACS titration on PBMC of healthy people (natural TIGIT); unit taken from the x axis Log[µg/mL]; the curve still rises at the highest concentration (MFI about 11000 at log 1), no plateau, the fitted value lies outside the range shown. The procedure: (§2) In order to verify that the prepared anti-human TIGIT antibody may effectively bind to naturally expressed TIGIT, the following experiments were specifically performed. PBMC cells in healthy people to be detected were counted, centrifuged at 300 g for 5 min, resuspended with an FCM buffer; and cell density was adjusted to 4E+06 cell/mL for later use. Samples to be detected (including a positive control antibody and a mouse monoclonal antibody) were diluted with the FCM buffer to 20 μg/mL, and then the FCM buffer was used to perform 3× serial dilutions of 12 concentration points; and the isotype control antibody was diluted with the FCM buffer to 20 μg/mL. According to an experimental design, in each well, 50 μL of the antibody and 50 μL of the cell (the volume of each cell added into a 96-well V-shaped plate being 2E+05 cell/well) were respectively added in the 96-well V-shaped plate; and incubation was performed in dark on ice for 30 min. Centrifugation (300 g/5 min) was performed; supernatant was discarded; 200 μL of the FCM buffer was added for washing once; centrifugation (300 g/5 min) was performed; and the supernatant was discarded. […] Centrifugation (300 g/5 min) was performed; supernatant was discarded; 200 μL of the FCM buffer was added for washing once; centrifugation (300 g/5 min) was performed; and the supernatant was discarded. […]

The target in assay [3] is T1, hTIGIT-hFc. The experiment in a line: FACS blocking: hTIGIT-hFc bound on U2-OS cells (PVR and CD112), then antibody, APC anti-human IgG Fc. The protocol:
as §1

Assay [4] concerns the target T2, full-length human TIGIT on cells. The experiment in a line: FACS titration on PBMC of healthy people (natural TIGIT), PE goat anti-mouse IgG; number as printed beside the name, the marker of the legend lies on the leftmost curve. The protocol:
as §2

Assay [5] concerns the target T1, hTIGIT-hFc. As to the kind of experiment: FACS blocking: antibody preincubated with hTIGIT-hFc, then CHO-hPVR cells; unit as printed on the axis, Log(uM); the same range is labelled nM in Fig. 4A and the method's top concentration of 40 µg/mL fits nM. The procedure: The CHO-engineered cells CHO-hPVR cells recombinantly expressing full-length human PVR were counted centrifugated at 300 g for 5 min, resuspended with an FCM buffer, the cells were added to the 96-well V-shaped plate; the volume of each cell added into a 96-well V-shaped plate was 2E+05 cell/well (being added in 50 μL/well); and incubation was performed in dark on ice for 30 min. Centrifugation (300 g/5 min) was performed; supernatant was discarded; 200 μL of the FCM buffer was added for washing once; centrifugation (300 g/5 min) was performed; and the supernatant was discarded. Secondary antibodies (PE anti-human IgG Fc, 1:500 dilution) were added to the 96-well V-shaped plate (in 100 μL/well); and incubation was performed in dark on ice for 30 min. Centrifugation (300 g/5 min) was performed; supernatant was discarded; 200 μL of the FCM buffer was added for washing once; centrifugation (300 g/5 min) was performed; and the supernatant was discarded. 100 μL of the 1×PBS was added for resuspending, and on-machine detection was performed.

A word on the IC50: it is the concentration at which inhibition is half-maximal. A high value points to a need for much substance. The term EC50 denotes the concentration giving half of the maximal effect. Low values mean a more potent agent, high ones a less potent agent.

B1: Tigit-5 mouse monoclonal antibody (antibody, V domains shown)
VH: QVQLQQPGAELVRPGASVKLSCKASGYSFTSYWMNWVKQRPGQGLEWIGMIRPSDSETRLNQMFKDKATLTVDKSSSTAYMQLSSPTSDDSAVYYCAGIHDYGHGAYWGQGTLVTVSA
VL: DIQMIQSPASLSVSVGETVTITCRASENIYSNLAWYQQKQGKSPQLLVYAASHLPDGVPSRFSGSGSGTQYSLKINSLQSEDFGSYYCQHFWGTPRTFGGGTKLEIKR
notes: Mouse monoclonal antibody from hybridoma
With B1, inhibition in the assay with hTIGIT-hFc [1] was half-maximal at 0.335 mg/L (IC50). Further, the EC50 in assay [2] is ~310 mg/L.

B2: 14Tigit-1-1 mouse monoclonal antibody (antibody, V domains shown)
VH: DVQLQESGPGLVKPSQSLSLTCTVTGYSITSDYAWNWIRQFPGNKLEWMGYISYSGSTRSNPSLKSRISITRDTSKNQFFLQLNSMTAEDTATYYCGGWEVRNYYAMDYWGQGTSVTVSS
VL: DIVMTQSHKFMSTSVGDRVSITCKASQHVSTAVAWYQQKPGQSPKLLIYSASYRYTGVPDRFTGSGSGTDFTFTISSVQAEDLAVYYCQQHYNTPWTFGGGTKLEIKR
notes: as for B1
In turn, B2 returned a concentration for half-maximal inhibition (IC50) with hTIGIT-hFc [3] of 2.52 nM. The molecule further came in with an EC50 in assay [4] of 0.179 nM. In addition, the “IC50 (read off the curve)” value with hTIGIT-hFc [5] was ~1 nM.
